Assay results taken from FireProtDB (doi:10.1021/bi060907v).

Conditions: Thermococcus kodakarensis (strain ATCC BAA-918 / JCM 12380 / KOD1), pH 9, reversible: Yes, whole UniProt chain shown
[1] = 50 °C, GdnHCl, CD, Tris-HCl 20 mM

B1: Ribonuclease HII wild type, O74035 (protein)
chain: MKIAGIDEAGRGPVIGPMVIAAVVVDENSLPKLEELKVRDSKKLTPKRREKLFNEILGVLDDYVILELPPDVIGSREGTLNEFEVENFAKALNSLKVKPDVIYADAADVDEERFARELGERLNFEAEVVAKHKADDIFPVVSAASILAKVTRDRAVEKLKEEYGEIGSGYPSDPRTRAFLENYYREHGEFPPIVRKGWKTLKKIAEKVESEKKAEERQATLDRYFRKV
[1]
  denaturant m value: 5.64 kcal/mol/M
  denaturant midpoint (higher = more stable): 1.85 M
Thermal, DSC, Gly-NaOH 20 mM
  Tm: 85.2 °C
  unfolding enthalpy (calorimetric): 137 kcal/mol
  unfolding enthalpy (van 't Hoff): 163 kcal/mol
